Reference: patent US20240076386

B1: optimized anti-E-selectin antibody 1282 (protein)
chain 1: EVQLVESGGGLVQPGGSLRLSCAASGYAIRSAYMHWVRQAPGKGLEWVARIDPANGNTIYVDSVEGRFTISADNAKNSAYLQMNSLRAEDTAVYYCAMDLYSTSEYWGQGTLVTVSSASTKGPSVFPLAPSSKSTSGGTAALGCLVKDYFPEPVTVSWNSGALTSGVHTFPAVLQSSGLYSLSSVVTVPSSSLGTQTYICNVNHKPSNTKVDKKVEPKSCDKTHTCPPCPAPEAAGAPSVFLFPPKPKDTLMISRTPEVTCVVVDVSHEDPEVKFNWYVDGVEVHNAKTKPREEQYNSTYRVVSVLTVLHQDWLNGKEYKCKVSNKALPAPIEKTISKAKGQPREPQVYTLPPSREEMTKNQVSLTCLVKGFYPSDIAVEWESNGQPENNYKTTPPVLDSDGSFFLYSKLTVDKSRWQQGNVFSCSVMHEALHNHYTQKSLSLSPG
chain 2: DIQMTQSPSSLSASVGDRVTITCKTSQNIERYLNWYQQKPGKAPKLLIYAASSLQSGVPSRFSGSGSGTDFTLTISSLQPEDFATYFCLQDNAWPLTFGQGTKVEIKRTVAAPSVFIFPPSDEQLKSGTASVVCLLNNFYPREAKVQWKVDNALQSGNSQESVTEQDSKDSTYSLSSTLTLSKADYEKHKVYACEVTHQGLSSPVTKSFNRGEC
B2: optimized anti-E-selectin antibody 1448 (protein)
chain 1: EVQLVESGGGLVQPGGSLRLSCAASGYAIRSAYMHWVRQAPGKGLEWVARIDPANGNTIYVDSVKERFTISADNAKNSAYLQMNSLRAEDTAVYYCAMDLYSTSEYWGQGTLVTVSSASTKGPSVFPLAPSSKSTSGGTAALGCLVKDYFPEPVTVSWNSGALTSGVHTFPAVLQSSGLYSLSSVVTVPSSSLGTQTYICNVNHKPSNTKVDKKVEPKSCDKTHTCPPCPAPEAAGAPSVFLFPPKPKDTLMISRTPEVTCVVVDVSHEDPEVKFNWYVDGVEVHNAKTKPREEQYNSTYRVVSVLTVLHQDWLNGKEYKCKVSNKALPAPIEKTISKAKGQPREPQVYTLPPSREEMTKNQVSLTCLVKGFYPSDIAVEWESNGQPENNYKTTPPVLDSDGSFFLYSKLTVDKSRWQQGNVFSCSVMHEALHNHYTQKSLSLSPG
chain 2: DIQMTQSPSSLSASVGDRVTITCKTSQNIERYLNWYQQKPGKAPKLLIYAASSLQSGVPSRFSGSGSGTDFTLTISSLQPEDFATYFCLQDNAWPLTFGQGTKVEIKRTVAAPSVFIFPPSDEQLKSGTASVVCLLNNFYPREAKVQWKVDNALQSGNSQESVTEQDSKDSTYSLSSTLTLSKADYEKHKVYACEVTHQGLSSPVTKSFNRGEC
B3: optimized anti-E-selectin antibody 1444 (protein)
chain 1: EVQLVESGGGLVQPGGSLRLSCAASGYAIRSAYMHWVRQAPGKGLEWVARIDPANGNTIYVDSVTGRFTISADNAKNSAYLQMNSLRAEDTAVYYCAMDLYSTSEYWGQGTLVTVSSASTKGPSVFPLAPSSKSTSGGTAALGCLVKDYFPEPVTVSWNSGALTSGVHTFPAVLQSSGLYSLSSVVTVPSSSLGTQTYICNVNHKPSNTKVDKKVEPKSCDKTHTCPPCPAPEAAGAPSVFLFPPKPKDTLMISRTPEVTCVVVDVSHEDPEVKFNWYVDGVEVHNAKTKPREEQYNSTYRVVSVLTVLHQDWLNGKEYKCKVSNKALPAPIEKTISKAKGQPREPQVYTLPPSREEMTKNQVSLTCLVKGFYPSDIAVEWESNGQPENNYKTTPPVLDSDGSFFLYSKLTVDKSRWQQGNVFSCSVMHEALHNHYTQKSLSLSPG
chain 2: DIQMTQSPSSLSASVGDRVTITCKTSQNIERYLNWYQQKPGKAPKLLIYAASSLQSGVPSRFSGSGSGTDFTLTISSLQPEDFATYFCLQDNAWPLTFGQGTKVEIKRTVAAPSVFIFPPSDEQLKSGTASVVCLLNNFYPREAKVQWKVDNALQSGNSQESVTEQDSKDSTYSLSSTLTLSKADYEKHKVYACEVTHQGLSSPVTKSFNRGEC
B4: optimized anti-E-selectin antibody 1284 (protein)
chain 1: EVQLVESGGGLVQPGGSLRLSCAASGYAIRSAYMHWVRQAPGKGLEWVARIDPANGNTIYVESVEGRFTISADNAKNSAYLQMNSLRAEDTAVYYCAMDLYSTSEYWGQGTLVTVSSASTKGPSVFPLAPSSKSTSGGTAALGCLVKDYFPEPVTVSWNSGALTSGVHTFPAVLQSSGLYSLSSVVTVPSSSLGTQTYICNVNHKPSNTKVDKKVEPKSCDKTHTCPPCPAPEAAGAPSVFLFPPKPKDTLMISRTPEVTCVVVDVSHEDPEVKFNWYVDGVEVHNAKTKPREEQYNSTYRVVSVLTVLHQDWLNGKEYKCKVSNKALPAPIEKTISKAKGQPREPQVYTLPPSREEMTKNQVSLTCLVKGFYPSDIAVEWESNGQPENNYKTTPPVLDSDGSFFLYSKLTVDKSRWQQGNVFSCSVMHEALHNHYTQKSLSLSPG
chain 2: DIQMTQSPSSLSASVGDRVTITCKTSQNIERYLNWYQQKPGKAPKLLIYAASSLQSGVPSRFSGSGSGTDFTLTISSLQPEDFATYFCLQDNAWPLTFGQGTKVEIKRTVAAPSVFIFPPSDEQLKSGTASVVCLLNNFYPREAKVQWKVDNALQSGNSQESVTEQDSKDSTYSLSSTLTLSKADYEKHKVYACEVTHQGLSSPVTKSFNRGEC

Test: AC-SINS self-interaction

AC-SINS (wavelength of maximum absorbance relative to blank, nm), 1 nm:
B1, B2, B3, B4
